Publication PMC11827763, “A Gold Nanoparticle-based Aptasensor for Specific Detection of CA125”

Target: CA125 (carbohydrate antigen 125) (UniProt Q8WXI7 1-14451)
Assay: AuNP aggregation aptasensor (A660/A520); 200 nM aptamer, citrate AuNPs ~13 nm, NaCl 1 M stock added after binding; linear 15-160 U/mL, LOD 14.41 U/mL; 50 uL CA125 (15-160 U/mL) + 50 uL aptamer (200 nM), 30 min, room temperature; then 50 uL AuNPs 5 min, 10 uL 1 M NaCl 5 min; buffer and pH not stated
Settings: protein: commercial; predicted stem-loop

B1: CA125 aptamer (31-mer) (ssDNA)
DNA: TCACTATAGGGAGACAAGAATAAACGCTCAA
B1: binds.
